Experimental data reported in the Human Domainome abundance scans (Beltran et al. 2025).
± gives the uncertainty stated by the source.

B1: Zinc finger homeobox protein 4, residues 2562 to 2617; numbered along this chain, Q86UP3 (parent)
chain: RLRTTITPEQLEILYEKYLLDSNPTRKMLDHIAREVGLKKRVVQVWFQNTRARERK

Variants of: B1
Assay: abundance fitness (aPCA) (normalised: wild type 0, dead -1); higher = more abundant; growth selection in yeast, the domain comes from the species named
Conditions: Homo sapiens

Question: With RLRTTITPEQLEILYEKYLLDSNPTRKMLDHEAREVGLKKRVVQVWFQNTRARERK as the variant, how does the abundance fitness read?
Answer: -0.998 ± 0.18

Question: With RLRTTITPEQLEILYEKYLLDSNPTRKMLDHFAREVGLKKRVVQVWFQNTRARERK as the variant, how does the abundance fitness read?
Answer: -0.377 ± 0.18

Question: Which abundance fitness does the source give for RLRTTITPEQLEILYEKYLLDSNPTRKMLDHSAREVGLKKRVVQVWFQNTRARERK here?
Answer: -1.27 ± 0.32

Question: With RLRTTITPEQLEILYEKYLLDSNPTRKMLDHRAREVGLKKRVVQVWFQNTRARERK as the variant, how does the abundance fitness read?
Answer: -1.08 ± 0.12

Question: With RLRTTITPEQLEILYEKYLLDSNPTRKMLDHMAREVGLKKRVVQVWFQNTRARERK as the variant, how does the abundance fitness read?
Answer: -0.366 ± 0.15

Question: Which abundance fitness does the source give for RLRTTITPEQLEILYEKYLLDSNPTRKMLDHGAREVGLKKRVVQVWFQNTRARERK here?
Answer: -0.945 ± 0.16

Question: For RLRTTITPEQLEILYEKYLLDSNPTRKMLDHTAREVGLKKRVVQVWFQNTRARERK, which abundance fitness is on record?
Answer: -0.405 ± 0.076

Question: With RLRTTITPEQLEILYEKYLLDSNPTRKMLDHCAREVGLKKRVVQVWFQNTRARERK as the variant, how does the abundance fitness read?
Answer: -0.518 ± 0.072

Question: Which abundance fitness does the source give for RLRTTITPEQLEILYEKYLLDSNPTRKMLDHLAREVGLKKRVVQVWFQNTRARERK here?
Answer: -0.15 ± 0.069

Question: Which abundance fitness does the source give for RLRTTITPEQLEILYEKYLLDSNPTRKMLDHAAREVGLKKRVVQVWFQNTRARERK here?
Answer: -0.786 ± 0.18

Question: Which abundance fitness does the source give for RLRTTITPEQLEILYEKYLLDSNPTRKMLDHYAREVGLKKRVVQVWFQNTRARERK here?
Answer: -0.208 ± 0.085

Question: For RLRTTITPEQLEILYEKYLLDSNPTRKMLDHVAREVGLKKRVVQVWFQNTRARERK, which abundance fitness is on record?
Answer: -0.204 ± 0.055

Question: For RLRTTITPEQLEILYEKYLLDSNPTRKMLDHQAREVGLKKRVVQVWFQNTRARERK, which abundance fitness is on record?
Answer: -1.24 ± 0.27

Question: With RLRTTITPEQLEILYEKYLLDSNPTRKMLDHWAREVGLKKRVVQVWFQNTRARERK as the variant, how does the abundance fitness read?
Answer: -0.23 ± 0.12

Question: With RLRTTITPEQLEILYEKYLLDSNPTRKMLDHKAREVGLKKRVVQVWFQNTRARERK as the variant, how does the abundance fitness read?
Answer: -0.796 ± 0.24

Question: With RLRTTITPEQLEILYEKYLLDSNPTRKMVDHIAREVGLKKRVVQVWFQNTRARERK as the variant, how does the abundance fitness read?
Answer: -0.024 ± 0.062

Question: Which abundance fitness does the source give for RLRTTITPEQLEILYEKYLLDSNPTRKMEDHIAREVGLKKRVVQVWFQNTRARERK here?
Answer: 0.155 ± 0.082

Question: Which abundance fitness does the source give for RLRTTITPEQLEILYEKYLLDSNPTRKMTDHIAREVGLKKRVVQVWFQNTRARERK here?
Answer: -0.228 ± 0.08

Question: For RLRTTITPEQLEILYEKYLLDSNPTRKMHDHIAREVGLKKRVVQVWFQNTRARERK, which abundance fitness is on record?
Answer: -0.95 ± 0.29

Question: With RLRTTITPEQLEILYEKYLLDSNPTRKMWDHIAREVGLKKRVVQVWFQNTRARERK as the variant, how does the abundance fitness read?
Answer: -0.004 ± 0.092

Question: With RLRTTITPEQLEILYEKYLLDSNPTRKMFDHIAREVGLKKRVVQVWFQNTRARERK as the variant, how does the abundance fitness read?
Answer: -0.049 ± 0.07

Question: Which abundance fitness does the source give for RLRTTITPEQLEILYEKYLLDSNPTRKMGDHIAREVGLKKRVVQVWFQNTRARERK here?
Answer: -0.94 ± 0.11

Question: With RLRTTITPEQLEILYEKYLLDSNPTRKMYDHIAREVGLKKRVVQVWFQNTRARERK as the variant, how does the abundance fitness read?
Answer: -0.239 ± 0.18

Question: Which abundance fitness does the source give for RLRTTITPEQLEILYEKYLLDSNPTRKMSDHIAREVGLKKRVVQVWFQNTRARERK here?
Answer: -0.498 ± 0.066

Question: Which abundance fitness does the source give for RLRTTITPEQLEILYEKYLLDSNPTRKMKDHIAREVGLKKRVVQVWFQNTRARERK here?
Answer: -0.621 ± 0.1

Question: Which abundance fitness does the source give for RLRTTITPEQLEILYEKYLLDSNPTRKMMDHIAREVGLKKRVVQVWFQNTRARERK here?
Answer: -0.429 ± 0.12

Question: Which abundance fitness does the source give for RLRTTITPEQLEILYEKYLLDSNPTRKMDDHIAREVGLKKRVVQVWFQNTRARERK here?
Answer: -0.721 ± 0.17

Question: Which abundance fitness does the source give for RLRTTITPEQLEILYEKYLLDSNPTRKMPDHIAREVGLKKRVVQVWFQNTRARERK here?
Answer: -0.752 ± 0.18

Question: For RLRTTITPEQLEILYEKYLLDSNPTRKMQDHIAREVGLKKRVVQVWFQNTRARERK, which abundance fitness is on record?
Answer: -0.124 ± 0.068

Question: For RLRTTITPEQLEILYEKYLLDSNPTRKMRDHIAREVGLKKRVVQVWFQNTRARERK, which abundance fitness is on record?
Answer: -0.346 ± 0.053

Question: For RLRTTITPEQLEILYEKYLLDSNPTRKMIDHIAREVGLKKRVVQVWFQNTRARERK, which abundance fitness is on record?
Answer: -0.033 ± 0.063

Question: With RLRTTITPEQLEILYEKYLLDSNPTRKMLDHIHREVGLKKRVVQVWFQNTRARERK as the variant, how does the abundance fitness read?
Answer: -0.86 ± 0.14

Question: Which abundance fitness does the source give for RLRTTITPEQLEILYEKYLLDSNPTRKMLDHITREVGLKKRVVQVWFQNTRARERK here?
Answer: -0.331 ± 0.22

Question: With RLRTTITPEQLEILYEKYLLDSNPTRKMLDHILREVGLKKRVVQVWFQNTRARERK as the variant, how does the abundance fitness read?
Answer: -0.732 ± 0.2

Question: Which abundance fitness does the source give for RLRTTITPEQLEILYEKYLLDSNPTRKMLDHIRREVGLKKRVVQVWFQNTRARERK here?
Answer: -0.541 ± 0.18

Question: For RLRTTITPEQLEILYEKYLLDSNPTRKMLDHIGREVGLKKRVVQVWFQNTRARERK, which abundance fitness is on record?
Answer: -0.344 ± 0.07

Question: Which abundance fitness does the source give for RLRTTITPEQLEILYEKYLLDSNPTRKMLDHIQREVGLKKRVVQVWFQNTRARERK here?
Answer: -0.669 ± 0.45

Question: With RLRTTITPEQLEILYEKYLLDSNPTRKMLDHISREVGLKKRVVQVWFQNTRARERK as the variant, how does the abundance fitness read?
Answer: -0.158 ± 0.18

Question: With RLRTTITPEQLEILYEKYLLDSNPTRKMLDHIWREVGLKKRVVQVWFQNTRARERK as the variant, how does the abundance fitness read?
Answer: -0.696 ± 0.4

Question: Which abundance fitness does the source give for RLRTTITPEQLEILYEKYLLDSNPTRKMLDHIEREVGLKKRVVQVWFQNTRARERK here?
Answer: -0.352 ± 0.21

Question: With RLRTTITPEQLEILYEKYLLDSNPTRKMLDHICREVGLKKRVVQVWFQNTRARERK as the variant, how does the abundance fitness read?
Answer: -0.003 ± 0.36

Question: With RLRTTITPEQLEILYEKYLLDSNPTRKMLDHIDREVGLKKRVVQVWFQNTRARERK as the variant, how does the abundance fitness read?
Answer: -0.526 ± 0.33

Question: With RLRTTITPEQLEILYEKYLLDSNPTRKMLDHIPREVGLKKRVVQVWFQNTRARERK as the variant, how does the abundance fitness read?
Answer: -0.563 ± 0.2

Question: For RLRTTITPEQLEILYEKYLLDSNPTRKMLMHIAREVGLKKRVVQVWFQNTRARERK, which abundance fitness is on record?
Answer: -0.352 ± 0.088

Question: With RLRTTITPEQLEILYEKYLLDSNPTRKMLYHIAREVGLKKRVVQVWFQNTRARERK as the variant, how does the abundance fitness read?
Answer: 0.003 ± 0.17

Question: Which abundance fitness does the source give for RLRTTITPEQLEILYEKYLLDSNPTRKMLWHIAREVGLKKRVVQVWFQNTRARERK here?
Answer: -0.173 ± 0.087

Question: For RLRTTITPEQLEILYEKYLLDSNPTRKMLHHIAREVGLKKRVVQVWFQNTRARERK, which abundance fitness is on record?
Answer: -0.269 ± 0.15
